Source: article doi:10.1101/2023.12.06.569572

Target: Neurofibromin (NF1), recombinant full-length NF1 isoform 2 (human) (UniProt P21359)
Assay: mass photometry
Conditions: remark: other sources report otherwise

stoichiometry N: 2
Substance: Neurofibromin (NF1), recombinant full-length NF1 isoform 2, P21359 1-2839
